Experimental data from the supplement of paper PMC9732359.
± gives the uncertainty stated by the source.

Test: protein stability index of a GFP-peptide fusion (yeast GPS) (PSI 1-4); higher = more stable; sorted into four equal gates, so the index is relative within each strain
Conditions: doa10∆
In short: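 Peptides tiling yeast proteins in 17-residue segments were fused downstream of GFP, with Cherry expressed from the same plasmid. As a pooled library in yeast, mid-log cultures grown in leucine-free medium were sorted into four equal gates by GFP/Cherry fluorescence ratio. Gate plasmids were PCR-amplified and Illumina-sequenced, and barcodes linked reads to strains. Each peptide received a protein stability index equal to the sum of each gate's read frequency times its gate number.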

Sequence	protein stability index
QDSIDISIKDNKLVMKS [GAL11]	2.5 ± 0.064
QEASKQYTKDEQFYTKD [RPN2]	3.41 ± 0.085
QEHNIQDSNVMPGSQIN [SNF2]	3.11 ± 0.074

Same assay, conditions: pdr5∆

Sequence	protein stability index
PEEEAAIRRENEWAEDR [SKP1]	3.15 ± 0.082
PEHLRKIINTHSDMASK [PRP8]	2.04 ± 0.051
PELAMALRLSMEEEQQR [RPN10]	3.09 ± 0.061
PELGDKFSSRHGQKGVC [RET1]	3.42 ± 0.12
PEMSNLYRLSTPLRDEV [PRP8]	2.76 ± 0.047
PESIRQKKARTILQHLS [PRP8]	1.53 ± 0.093
PEYGRIIASASYDKTVK [YGL100W/SEH1]	2.28 ± 0.082
PFDDDEPPLSYEQHIEN [PRP8]	2.86 ± 0.092
PFHDPEARLFNIWGTVR [ECM29]	1.43 ± 0.22
PFKVFLDIGLQRTTTGA [RPL5]	2.04 ± 0.074
PGDGSSYINVTFRAVVF [RPC25]	2.05 ± 0.058
PGDVLDKDAFIPKLKPA [SNU114]	1.5 ± 0.098
PGHSLLLSIKLPGKVNT [SNF5]	1.77 ± 0.039
PGHVNFMDETAVALAAS [SNU114]	2.7 ± 0.1
PGIMLRQMNLVITLLNN [YCS4]	1.11 ± 0.042
PGTIVLYAERVQDRGLS [RPS3]	2.99 ± 0.056
PGTVLILLAGRFRGKRV [RPL6A]	1.83 ± 0.069
PHIQKMLSILEIFKKGY [POP6]	2.73 ± 0.099
PIFDYIHIDALELAGMD [SIR3]	1.79 ± 0.054
PIRINSTEEIEYIELEY [YMR129W/POM152]	3.04 ± 0.09
PKAVVDHINGSGKRKPT [GAL11]	2.81 ± 0.064
PKDYIKKLLEVHDIFSK [CDC53]	2.04 ± 0.06
PKFFLGEENRVRFIGDS [QCR2]	3.15 ± 0.11
PKLKEGALHFVQQSEKL [YIL149C/MLP2]	2.33 ± 0.082
PKLKRIGLVKCTQMTDE [GRR1]	2.89 ± 0.076

Sequence	protein stability index
PKMGVSSSSLECATCHG [RPO31]	3.34 ± 0.049
PKNFGIGQAVQPKRNLS [RPL8A]	2.74 ± 0.056
PKRKRRLPVSEDTNTKP [YOR098C/NUP1]	2.82 ± 0.13
PKSKSLPNEMSQNDGFV [RPO31]	3.14 ± 0.14
PLGVILTFVSVDEELGP [SCL1]	1.9 ± 0.037
PLHLIFAQPVADIENST [SSN2]	2.51 ± 0.097
PLILTPPQLANQQQPPQ [SNF11]	1.93 ± 0.071
PLIMATCGSKGSTLNVS [RPO31]	2.05 ± 0.074
PLNKPLLTEELAKSGST [TAF14]	2.24 ± 0.064
PLPICHANSVVALTGLL [YML031W/NDC1]	1.73 ± 0.083
PLQNIHVRKVKLLKQPK [RPS1A]	2.82 ± 0.074
PLQSMDIEQLEYSRDCF [RPB3]	3.17 ± 0.068
PLSDLKKRSQAKMNAKT [RPC82]	3.4 ± 0.081
PLVAHLGLYVGVDDQIL [YJL039C/NUP192]	2.85 ± 0.12
PMLMANNDVFTIGPYRA [SSN3]	3.3 ± 0.082
PNALKPLSESLRLVDDD [RRP6]	3.34 ± 0.081
PNDSNDEKVTILVDSLT [SWI1]	2.81 ± 0.065
PNFTGIDKLMLSPSDQF [SSN2]	1.33 ± 0.068
PNGEGSKTWETYEMRIH [RPS20]	3.35 ± 0.069
PNIVEIDLDNDEDDDED [DLS1]	3.29 ± 0.065
PNSGTATTGGFGANQAT [YGR119C/NUP57]	2.33 ± 0.07
PNTSDNNNNSNNHNMRN [SWI1]	3.02 ± 0.059
PPGTGKTLCARAVANRT [RPT1]	1.25 ± 0.19
PPGYEIEELDNPMVPSS [PRP8]	2.65 ± 0.066
PPQQTYHFPIFNKYADP [RPN4]	2.8 ± 0.042

Sequence	protein stability index
PPSKHSTLTLSDSEDSD [ESC2]	2.82 ± 0.14
PQGFSSVERGRKRAHSL [REC8]	3.4 ± 0.12
PQPLFMEDPPSTVSGEL [YMR153W/NUP53]	3.64 ± 0.19
PQQAQMQQAQFQAQQAQ [SNF2]	3.04 ± 0.058
PQRLTVLRLATNKGPLA [MCD1]	2.39 ± 0.073
PQTTQMFQSQSQLQPQP [YDL088C/ASM4]	2.5 ± 0.039
PQYQYQRRYVIKEKVQF [ITC1]	1.88 ± 0.047
PRIQRADPVALYLGLKR [RPB5]	2.42 ± 0.1
PRLEKLINEILLKSNDP [RGR1]	2.01 ± 0.045
PRMIELMEFLCVVSTDS [ECM29]	1.66 ± 0.066
PRPSYSSRPNVNTTRRF [YMR129W/POM152]	2.97 ± 0.096
PRRFGKGSRQCRVCSSH [RPS29B]	3.06 ± 0.038
PSANNSSSIKSTGPTGA [RRP4]	3.28 ± 0.043
PSCVYNLIGVITHQGAN [UBP6]	2.9 ± 0.13
PSEIPDAHKAEQEDIIE [SWI3]	3.29 ± 0.14
PSFMLKHHQLFYMLNAG [RPN1]	1.53 ± 0.11
PSKKLKTEDGFVIPALP [RPC82]	3.19 ± 0.089
PSLELSAEYLQMSLEAN [YJR042W/NUP85]	2.15 ± 0.095
PSLIQEEEEDTTTTANI [NUT1]	3.12 ± 0.16
PSLKAHFTEIKLNKVDK [SIR3]	2.13 ± 0.065
PSLKFKPKAVARKSKEE [RPC53]	2.65 ± 0.086
PSMKKIKIEPSADDDVN [SIR3]	2.63 ± 0.1
PSRIFYKALRGMVSHKT [RPL16A]	1.27 ± 0.075
PSTKVASSAVMNRRKIA [YLR335W/NUP2]	1.77 ± 0.062
PSVGVKTMKTFVIHIQE [RPB5]	2.82 ± 0.13

Sequence	protein stability index
PSVNDFVIGVIIGTFSD [RRP40]	2.51 ± 0.07
PTDSSKILQKRSISKEL [SIR3]	2.98 ± 0.086
PTLAGMAQRTLKNKYES [FAS2]	2.67 ± 0.027
PTLQVGDLVYARVCTAE [RRP40]	1.85 ± 0.12
PTPAIIKPKPLWSGKQI [RPO21]	2.5 ± 0.093
PTPVVTISEKEQDILDL [SSN2]	2.02 ± 0.095
PTSAQKSAVSHAPAYHR [IRR1]	2.69 ± 0.12
PVAKWFVKFITYLTQEI [SIN4]	1.88 ± 0.046
PVFHKKAKTTKKVVLRL [RPL42A]	1.92 ± 0.091
PVGACATSVESVDIGVE [FAS2]	2.9 ± 0.11
PVKVSGTIKKIEQFAMR [POP5]	2.65 ± 0.058
PVTLAKVIKVLGRTGSR [RPS28A]	2.59 ± 0.077
PVYATIGVETGSEPLIQ [PRP28]	3.1 ± 0.076
PWNDDYPFLLSFLGEAK [YML103C/NUP188]	1.6 ± 0.061
QACGLVKNLSLMSCISV [RPB2]	1.75 ± 0.06
QAEATEWAEENADNVEW [RPS0A]	1.8 ± 0.11
QALQMKAMDIPIGRHEE [SWP82]	2.29 ± 0.13
QAQAQAQAAQAAQAQAQ [GAL11]	3.02 ± 0.14
QAQAQAQANNNNNGLPQ [GAL11]	3.1 ± 0.035
QCLRFLKETVIPSLANN [POP6]	1.63 ± 0.11
QDGGIMGSLINGITLAL [SKI6]	2.58 ± 0.058
QDGVLLVALSNEPAARL [FAS2]	1.9 ± 0.06
QDKDAIRKQPDDIINND [SIR2]	2.63 ± 0.049
QDKIELSEEETLLVIRR [SNF2]	2.27 ± 0.11
QDRDRFFLRDTLLWNKN [SNF5]	3.08 ± 0.052
